For one assay, the target named is FcγRIIIa 158F (UniProt P08637). As to the kind of experiment: biosensor with SA sensor, biotin-FcγRIIIa 158F loaded, antibody in solution.
Another assay addresses FcγRIIIa 158V (UniProt P08637). As to the kind of experiment: biosensor with SA sensor, biotin-FcγRIIIa 158V loaded, antibody in solution (7 concentrations, 2x gradient from 500 nM).

Sequence of FcγRIIIa 158V (P08637 17-208 F176V): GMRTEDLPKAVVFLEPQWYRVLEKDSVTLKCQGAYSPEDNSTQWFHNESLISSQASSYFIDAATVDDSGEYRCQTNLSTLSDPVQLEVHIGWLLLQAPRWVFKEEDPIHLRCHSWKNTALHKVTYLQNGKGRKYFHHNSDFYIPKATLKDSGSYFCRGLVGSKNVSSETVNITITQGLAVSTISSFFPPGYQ
Sequence of FcγRIIIa 158F (P08637 17-208 limits assumed): as the sequence (P08637 17-208 F176V) above, with V160F counted along it

What is called Kd is the concentration at which binding is half-saturated. Low readings indicate a tighter complex, high ones a looser complex. Obinutuzumab (antibody): the Kd with FcγRIIIa 158F is 226 nM; with FcγRIIIa 158V it was 36.8 nM.
